Assay results taken from patent US20160136234A1.

Legend:
Experiment in all cases: cell-based or functional assay
CHK2(I157T) (h) (human) = CHK2(I157T) (h) (human) (UniProt O96017)
MKK6 (h) (human) = MKK6 (h) (human) (UniProt P52564)
PKBα (h) (human) = PKBα (h) (human) (UniProt P31749)
Flt1 (h) (human) = molecular target: T1, Flt1 (h) (human) (UniProt P17948)
T1 sequence (looked up): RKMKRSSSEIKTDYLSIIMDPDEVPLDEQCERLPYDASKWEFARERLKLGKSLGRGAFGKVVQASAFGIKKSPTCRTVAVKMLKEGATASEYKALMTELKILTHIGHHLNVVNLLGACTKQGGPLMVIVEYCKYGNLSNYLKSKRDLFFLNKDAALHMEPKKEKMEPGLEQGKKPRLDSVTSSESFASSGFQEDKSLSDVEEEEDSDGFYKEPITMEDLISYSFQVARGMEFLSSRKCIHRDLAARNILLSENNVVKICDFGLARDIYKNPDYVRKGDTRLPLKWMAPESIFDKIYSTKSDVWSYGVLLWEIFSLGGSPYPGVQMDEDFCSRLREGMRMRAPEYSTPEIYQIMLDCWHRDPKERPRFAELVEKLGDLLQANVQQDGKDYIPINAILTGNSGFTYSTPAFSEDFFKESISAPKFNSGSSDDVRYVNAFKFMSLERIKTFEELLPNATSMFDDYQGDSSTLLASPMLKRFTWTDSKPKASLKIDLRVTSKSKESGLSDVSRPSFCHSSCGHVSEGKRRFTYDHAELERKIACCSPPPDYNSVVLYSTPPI

ALK (h) (human) = ALK (h) (human) (UniProt Q9UM73)
PAK3 (h) (human) = PAK3 (h) (human) (UniProt O75914)
Tie2 (h) (human) = Tie2 (h) (human) (UniProt Q02763)
cKit(D816H) (h) (human) = cKit(D816H) (h) (human) (UniProt P10721)
MARK1 (h) (human) = MARK1 (h) (human) (UniProt Q9P0L2)
CaMKIIβ (h) (human) = CaMKIIβ (h) (human) (UniProt Q13554)
NEK2 (h) (human) = molecular target: T2, NEK2 (h) (human) (UniProt P51955)
T2 sequence (looked up): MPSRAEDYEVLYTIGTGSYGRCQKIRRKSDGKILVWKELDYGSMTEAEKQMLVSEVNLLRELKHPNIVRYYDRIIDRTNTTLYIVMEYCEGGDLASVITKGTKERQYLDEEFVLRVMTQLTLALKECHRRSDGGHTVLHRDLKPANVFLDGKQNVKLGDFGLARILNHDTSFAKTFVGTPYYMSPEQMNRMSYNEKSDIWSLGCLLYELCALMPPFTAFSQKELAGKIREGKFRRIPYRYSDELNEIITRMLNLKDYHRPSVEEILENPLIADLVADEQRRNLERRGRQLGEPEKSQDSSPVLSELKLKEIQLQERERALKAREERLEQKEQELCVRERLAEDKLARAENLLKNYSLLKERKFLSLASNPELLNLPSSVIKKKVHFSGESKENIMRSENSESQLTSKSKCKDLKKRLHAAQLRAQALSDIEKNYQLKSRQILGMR

ROCK-I (h) (human) = ROCK-I (h) (human) (UniProt Q13464)
ROCK-II (h) (human) = ROCK-II (h) (human) (UniProt O75116)
Flt3(D835Y) (h) (human) = molecular target: T3, Flt3(D835Y) (h) (human) (UniProt P36888)
T3 sequence (looked up): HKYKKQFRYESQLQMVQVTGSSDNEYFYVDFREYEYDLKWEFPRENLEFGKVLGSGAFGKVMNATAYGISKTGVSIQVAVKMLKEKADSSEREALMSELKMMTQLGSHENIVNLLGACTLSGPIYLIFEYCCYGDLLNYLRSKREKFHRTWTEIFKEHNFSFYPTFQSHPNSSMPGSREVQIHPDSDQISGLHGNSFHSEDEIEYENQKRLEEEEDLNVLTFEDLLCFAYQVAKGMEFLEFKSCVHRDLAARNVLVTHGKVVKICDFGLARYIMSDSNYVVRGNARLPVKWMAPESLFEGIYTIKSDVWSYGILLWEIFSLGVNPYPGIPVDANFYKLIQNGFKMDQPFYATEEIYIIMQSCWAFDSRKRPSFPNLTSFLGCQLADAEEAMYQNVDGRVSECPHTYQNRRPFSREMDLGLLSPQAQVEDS

Haspin (h) (human) = molecular target: T4, Haspin (h) (human) (UniProt Q8TF76)
T4 sequence (looked up): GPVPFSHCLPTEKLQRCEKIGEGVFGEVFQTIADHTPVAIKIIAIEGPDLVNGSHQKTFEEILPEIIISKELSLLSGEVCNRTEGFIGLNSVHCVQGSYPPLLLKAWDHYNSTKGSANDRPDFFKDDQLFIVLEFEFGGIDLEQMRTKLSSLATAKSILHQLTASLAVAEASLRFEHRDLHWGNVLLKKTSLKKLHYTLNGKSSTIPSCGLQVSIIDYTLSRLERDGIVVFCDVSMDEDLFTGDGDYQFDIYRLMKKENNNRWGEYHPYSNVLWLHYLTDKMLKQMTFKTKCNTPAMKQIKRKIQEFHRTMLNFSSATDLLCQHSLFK

CaMKIIγ (h) (human) = CaMKIIγ (h) (human) (UniProt Q13555)
[1] = molecular target: IGF-1R (h), activated (human) (UniProt P08069)
WNK2 (h) (human) = WNK2 (h) (human) (UniProt Q9Y3S1)
Pim-2 (h) (human) = Pim-2 (h) (human) (UniProt Q9P1W9)
Fgr (h) (human) = Fgr (h) (human) (UniProt P09769)

Chain of CHK2(I157T) (h) (human) (O96017 5-543 I157T limits assumed): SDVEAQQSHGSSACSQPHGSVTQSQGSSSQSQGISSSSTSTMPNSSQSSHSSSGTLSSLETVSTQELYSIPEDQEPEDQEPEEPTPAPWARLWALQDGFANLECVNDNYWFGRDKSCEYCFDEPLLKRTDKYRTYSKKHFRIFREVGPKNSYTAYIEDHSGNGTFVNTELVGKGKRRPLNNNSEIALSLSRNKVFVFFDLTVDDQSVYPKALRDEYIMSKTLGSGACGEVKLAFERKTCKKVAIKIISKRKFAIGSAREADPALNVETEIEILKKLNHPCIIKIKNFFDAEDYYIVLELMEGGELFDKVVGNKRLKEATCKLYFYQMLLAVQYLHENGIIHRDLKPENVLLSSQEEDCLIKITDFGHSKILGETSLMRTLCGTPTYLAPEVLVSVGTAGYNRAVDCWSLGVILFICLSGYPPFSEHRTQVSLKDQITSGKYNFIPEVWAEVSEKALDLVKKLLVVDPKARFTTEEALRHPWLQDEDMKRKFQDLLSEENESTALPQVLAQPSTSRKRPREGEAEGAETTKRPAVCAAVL
Chain of CaMKIIβ (h) (human) (Q13554 whole entry): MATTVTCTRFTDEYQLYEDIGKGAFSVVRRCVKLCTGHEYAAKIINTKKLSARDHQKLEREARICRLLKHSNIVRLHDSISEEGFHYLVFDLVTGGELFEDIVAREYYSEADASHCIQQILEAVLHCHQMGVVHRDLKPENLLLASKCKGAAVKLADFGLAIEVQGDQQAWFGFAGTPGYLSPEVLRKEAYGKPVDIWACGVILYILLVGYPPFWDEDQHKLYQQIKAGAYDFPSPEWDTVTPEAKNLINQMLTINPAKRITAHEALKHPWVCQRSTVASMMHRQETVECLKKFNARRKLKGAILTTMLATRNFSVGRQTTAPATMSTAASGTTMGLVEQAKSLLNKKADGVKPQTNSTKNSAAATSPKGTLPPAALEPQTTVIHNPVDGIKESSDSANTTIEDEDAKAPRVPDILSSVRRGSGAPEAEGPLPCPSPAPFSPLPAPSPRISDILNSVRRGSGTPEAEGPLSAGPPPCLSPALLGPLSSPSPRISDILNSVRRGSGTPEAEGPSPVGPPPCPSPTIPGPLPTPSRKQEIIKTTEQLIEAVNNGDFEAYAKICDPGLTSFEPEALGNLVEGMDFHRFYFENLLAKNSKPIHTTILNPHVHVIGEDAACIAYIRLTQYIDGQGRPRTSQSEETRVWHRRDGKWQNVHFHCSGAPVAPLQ
Chain of cKit(D816H) (h) (human) (P10721 544-976 D816H): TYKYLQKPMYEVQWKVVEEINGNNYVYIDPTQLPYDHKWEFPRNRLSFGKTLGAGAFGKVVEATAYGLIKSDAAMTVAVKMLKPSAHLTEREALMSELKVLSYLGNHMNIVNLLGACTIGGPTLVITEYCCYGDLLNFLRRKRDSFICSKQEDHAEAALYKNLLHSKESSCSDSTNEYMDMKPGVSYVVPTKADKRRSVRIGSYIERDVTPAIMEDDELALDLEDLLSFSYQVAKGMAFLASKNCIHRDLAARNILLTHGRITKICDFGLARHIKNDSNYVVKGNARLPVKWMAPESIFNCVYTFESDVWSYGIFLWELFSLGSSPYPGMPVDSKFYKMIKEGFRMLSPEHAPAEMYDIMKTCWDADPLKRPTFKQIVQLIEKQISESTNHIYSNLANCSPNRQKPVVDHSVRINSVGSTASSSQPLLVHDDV
Chain of PKBα (h) (human) (P31749 whole entry): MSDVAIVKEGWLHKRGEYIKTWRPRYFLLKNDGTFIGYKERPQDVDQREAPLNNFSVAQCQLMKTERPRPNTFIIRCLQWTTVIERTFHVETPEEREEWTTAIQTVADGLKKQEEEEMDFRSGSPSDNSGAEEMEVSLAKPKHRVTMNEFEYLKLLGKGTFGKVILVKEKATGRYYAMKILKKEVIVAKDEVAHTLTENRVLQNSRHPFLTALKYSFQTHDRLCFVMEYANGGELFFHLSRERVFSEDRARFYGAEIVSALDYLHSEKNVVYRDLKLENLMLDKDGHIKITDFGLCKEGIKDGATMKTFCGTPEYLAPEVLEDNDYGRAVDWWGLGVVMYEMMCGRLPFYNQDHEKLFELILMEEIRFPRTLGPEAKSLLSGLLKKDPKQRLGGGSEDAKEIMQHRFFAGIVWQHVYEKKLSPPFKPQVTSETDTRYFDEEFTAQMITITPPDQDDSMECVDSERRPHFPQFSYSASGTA
Chain of CaMKIIγ (h) (human) (Q13555 whole entry): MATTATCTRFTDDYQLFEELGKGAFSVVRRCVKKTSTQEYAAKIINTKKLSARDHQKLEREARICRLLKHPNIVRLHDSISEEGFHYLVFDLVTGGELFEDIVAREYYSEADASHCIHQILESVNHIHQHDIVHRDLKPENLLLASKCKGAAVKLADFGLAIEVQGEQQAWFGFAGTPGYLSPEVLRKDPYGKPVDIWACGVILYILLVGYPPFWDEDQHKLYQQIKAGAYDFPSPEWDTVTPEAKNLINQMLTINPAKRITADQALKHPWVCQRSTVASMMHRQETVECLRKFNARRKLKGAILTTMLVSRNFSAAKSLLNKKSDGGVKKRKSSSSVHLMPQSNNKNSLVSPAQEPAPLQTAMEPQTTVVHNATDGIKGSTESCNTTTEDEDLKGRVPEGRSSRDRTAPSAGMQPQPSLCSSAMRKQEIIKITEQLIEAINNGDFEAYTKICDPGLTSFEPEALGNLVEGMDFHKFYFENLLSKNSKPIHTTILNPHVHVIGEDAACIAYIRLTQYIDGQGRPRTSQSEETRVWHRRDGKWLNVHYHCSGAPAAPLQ
Chain of Tie2 (h) (human) (Q02763 771-1124 limits assumed): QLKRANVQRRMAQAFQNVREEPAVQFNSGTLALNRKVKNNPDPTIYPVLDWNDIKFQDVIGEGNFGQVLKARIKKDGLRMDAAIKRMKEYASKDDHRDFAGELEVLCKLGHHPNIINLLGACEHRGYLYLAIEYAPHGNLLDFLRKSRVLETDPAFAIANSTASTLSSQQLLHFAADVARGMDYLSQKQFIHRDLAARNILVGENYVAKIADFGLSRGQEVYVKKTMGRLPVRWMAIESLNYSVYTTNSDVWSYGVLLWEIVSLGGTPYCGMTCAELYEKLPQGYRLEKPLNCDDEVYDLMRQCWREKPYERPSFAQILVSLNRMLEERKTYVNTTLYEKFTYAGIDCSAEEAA
Chain of IGF-1R (h), activated (human) (P08069 959-1367 limits assumed): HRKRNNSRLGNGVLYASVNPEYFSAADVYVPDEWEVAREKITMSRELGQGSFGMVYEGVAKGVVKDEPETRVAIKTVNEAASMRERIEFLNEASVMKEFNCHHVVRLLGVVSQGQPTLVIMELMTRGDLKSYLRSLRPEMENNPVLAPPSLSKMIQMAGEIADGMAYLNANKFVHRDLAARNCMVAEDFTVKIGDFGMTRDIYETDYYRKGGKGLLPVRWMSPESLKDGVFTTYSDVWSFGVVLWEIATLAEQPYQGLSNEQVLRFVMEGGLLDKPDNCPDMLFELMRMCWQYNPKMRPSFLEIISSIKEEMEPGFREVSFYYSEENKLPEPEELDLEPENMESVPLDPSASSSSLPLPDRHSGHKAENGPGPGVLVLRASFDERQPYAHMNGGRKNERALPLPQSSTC

% activity at 100 µM (CHK2(I157T) (h) (human)): 43%
% activity at 100 µM (MKK6 (h) (human)): 48%
% activity at 100 µM (PKBα (h) (human)): 57%
% activity at 100 µM (Flt1 (h) (human)): 69%
% activity at 100 µM (ALK (h) (human)): 19%
% activity at 100 µM (PAK3 (h) (human)): 140%
% activity at 100 µM (Tie2 (h) (human)): 26%
% activity at 100 µM (cKit(D816H) (h) (human)): 126%
% activity at 100 µM (MARK1 (h) (human)): 132%
% activity at 100 µM (CaMKIIβ (h) (human)): 2%
% activity at 100 µM (NEK2 (h) (human)): 78%
% activity at 100 µM (ROCK-I (h) (human)): 79%
% activity at 100 µM (ROCK-II (h) (human)): 74%
% activity at 100 µM (Flt3(D835Y) (h) (human)): 80%
% activity at 100 µM (Haspin (h) (human)): 48%
% activity at 100 µM (CaMKIIγ (h) (human)): 5%
% activity at 100 µM [1]: 80%
% activity at 100 µM (WNK2 (h) (human)): 64%
% activity at 100 µM (Pim-2 (h) (human)): 76%
% activity at 100 µM (Fgr (h) (human)): 60%
Substance: MMI-0300 (peptide)
